Test [1] deals with T1, full length Shc (1 – 473) (Homo sapiens, UniProt P29353).
T1 construct: The vector of pET28a-full length Shc (1 – 473), generously provided by Dr. Ladbury; His-tag (N); made in house; host or cells: E. coli BL21 (DE3), pET28a (vector a gift from Dr. Ladbury)
T1 sequence (P29353 1-473 isoform P29353-2): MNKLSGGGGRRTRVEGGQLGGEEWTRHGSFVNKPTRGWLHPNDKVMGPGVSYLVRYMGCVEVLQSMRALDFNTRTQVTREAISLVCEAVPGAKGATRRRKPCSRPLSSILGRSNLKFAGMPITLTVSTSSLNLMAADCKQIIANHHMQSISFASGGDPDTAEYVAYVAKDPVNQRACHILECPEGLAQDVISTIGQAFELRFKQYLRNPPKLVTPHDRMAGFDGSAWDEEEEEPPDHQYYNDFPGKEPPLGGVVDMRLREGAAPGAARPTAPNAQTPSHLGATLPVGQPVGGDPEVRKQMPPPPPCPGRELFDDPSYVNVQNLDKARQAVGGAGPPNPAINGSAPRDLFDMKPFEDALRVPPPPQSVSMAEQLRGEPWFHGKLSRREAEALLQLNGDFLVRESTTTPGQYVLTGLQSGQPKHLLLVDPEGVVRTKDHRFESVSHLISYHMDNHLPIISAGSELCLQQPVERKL
Nature of the test: ITC binding to full length Shc. As to conditions: full-length Shc titrated by bi-β3, Ins(1,4,5)P3 at 3 to 1. How it is done: The Shc PTB domain (17 – 207) containing the pET15b vector was transformed into a Rosetta (DE3) cell line to pursue optimal expression levels. SH2 domain (380 – 473) was cloned into NdeI and XhoI sites in pET21b vector and then transformed into a BL21 (DE3) cell line. The vector of pET28a-full length Shc (1 – 473), generously provided by Dr. Ladbury (University of Texas MD Anderson Cancer Center, TX), was expressed in a BL21 (DE3) cell line as well. Typically, 10 ml overnight culture was used to inoculate 1 liter LB broth. Cells were grown at 37°C until OD600 reached 0.6. At this point the culture was cooled to room temperature and then the overnight overexpression was induced by 1 mM isopropyl-β-D-thiogalactopyranoside. Harvested cells were kept at −20°C for future purification or resuspended in lysis buffer supplemented with protease inhibitors. Cells were further lysed by french press and the cell debris was removed by centrifugation at 18,000 rpm at 4°C. […] The overexpression of the target protein and the purified protein were confirmed by SDS-PAGE and the bands of the expected mass were observed. […]
Calorimetric measurements of a full length Shc, PTB domain, and SH2 domain to β3 phosphopeptides or PtdIns were performed on a low volume Nano ITC (TA Instruments). […] The concentration of protein samples was determined by UV measurements. […]

Test [2] addresses T2, Shc PTB domain (17 – 207) (Homo sapiens, UniProt P29353).
T2 construct: The Shc PTB domain (17 – 207) containing the pET15b vector was transformed into a Rosetta (DE3) cell line; His-tag (N); made in house; host or cells: E. coli Rosetta (DE3), pET15b
T2 sequence (P29353 17-207 isoform P29353-2): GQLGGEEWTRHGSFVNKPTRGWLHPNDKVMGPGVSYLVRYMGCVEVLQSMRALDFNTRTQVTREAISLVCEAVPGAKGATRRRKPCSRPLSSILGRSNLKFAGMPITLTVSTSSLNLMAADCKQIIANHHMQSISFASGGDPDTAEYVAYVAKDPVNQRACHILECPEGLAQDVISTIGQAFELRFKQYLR
Nature of the test: ITC binding to Shc PTB domain. The note with it: PtdIns binding to PTB domain, ITC, 25°C. The method, then:
The Shc PTB domain (17 – 207) containing the pET15b vector was transformed into a Rosetta (DE3) cell line to pursue optimal expression levels. SH2 domain (380 – 473) was cloned into NdeI and XhoI sites in pET21b vector and then transformed into a BL21 (DE3) cell line. The vector of pET28a-full length Shc (1 – 473), generously provided by Dr. Ladbury (University of Texas MD Anderson Cancer Center, TX), was expressed in a BL21 (DE3) cell line as well. Typically, 10 ml overnight culture was used to inoculate 1 liter LB broth. Cells were grown at 37°C until OD600 reached 0.6. At this point the culture was cooled to room temperature and then the overnight overexpression was induced by 1 mM isopropyl-β-D-thiogalactopyranoside. Harvested cells were kept at −20°C for future purification or resuspended in lysis buffer supplemented with protease inhibitors. Cells were further lysed by french press and the cell debris was removed by centrifugation at 18,000 rpm at 4°C. […] The overexpression of the target protein and the purified protein were confirmed by SDS-PAGE and the bands of the expected mass were observed. The determination of protein concentration by UV measurement was consistent with Bradford assay.
Calorimetric measurements of a full length Shc, PTB domain, and SH2 domain to β3 phosphopeptides or PtdIns were performed on a low volume Nano ITC (TA Instruments). All experiments were carried out in a buffer of 50 mM Tris, pH 7.5, 100 mM NaCl, 5 mM β-mercaptoethanol (unless described otherwise) at 12°C or 25°C with a stirring speed of 250 rpm to minimize the precipitation of the protein. 300 second time intervals were set between injections. The concentration of protein samples was determined by UV measurements. The titrants (β3 phosphopeptides or PtdIns) were prepared in the same buffer by the dilution of higher concentration stocks. The concentrations of the protein ranged from 30 μM to 150 μM. The concentration of protein was examined after each ITC experiment by UV to ensure the stability of proteins under the test condition. The analysis of the data was done with Nano Analyze Software (TA Instruments) suite using an “independent” model.

Test [3] addresses T3, Shc PTB domain (17 – 207) (UniProt P29353-2 17-207).
T3 construct: Shc adaptor protein (p52 isoform), PTB domain, residues 17-207, from a pET15b vector; numbers count on: the p52 isoform (full length 1-473); 15N-labelled (M9 medium with 15NH4Cl) for the NMR experiments; Monomeric on Superdex-75; also called apo PTB domain; source: E. coli Rosetta (DE3), purified (Ni-NTA, Superdex-75)
T3 sequence (looked up): T2 sequence (P29353 17-207 isoform P29353-2)
Nature of the test: ITC; Nano ITC; β3 phosphopeptide titrated into the Shc protein over-saturated by Ins(1,4,5)P3 at 3 to 1 lipid to protein ratio; 12°C. The note with it: both partners purified. In general terms: ITC needs no label: the signal is the heat of the interaction.

Test [4] concerns the target T4, full length Shc (1 – 473) (UniProt P29353-2 1-473).
T4 construct: Shc adaptor protein, full length 1-473 (printed length 473 residues, the p52 isoform), from a pET28a vector provided by Dr. Ladbury; numbers count on: the p52 isoform; Monomeric on Superdex-75; also called Shc full length; p52 Shc; source: E. coli BL21 (DE3), purified (Ni-NTA, Superdex-75)
T4 sequence (looked up): T1 sequence (P29353 1-473 isoform P29353-2)
The test is described as above. The note with it: both partners purified.

Test [5] deals with T3, Shc PTB domain (17 – 207). Nature of the test: ITC; Nano ITC; β3 phosphopeptide titrated into the Shc protein (30-150 μM); 25°C; 50 mM Tris, pH 7.5, 100 mM NaCl, 5 mM β-mercaptoethanol; independent model. The note with it: both partners purified.
Test [6] concerns the target T4, full length Shc (1 – 473). The description is as above. The note with it: both partners purified.
In test [7] the target is T3, Shc PTB domain (17 – 207). Nature of the test: ITC; Nano ITC; β3 phosphopeptide titrated into the Shc protein (30-150 μM); 12°C; 50 mM Tris, pH 7.5, 100 mM NaCl, 5 mM β-mercaptoethanol; independent model. The note with it: both partners purified.
The target of test [8] is T4, full length Shc (1 – 473). The description is as above. As to conditions: both partners purified.
Test [9] has as its target T3, Shc PTB domain (17 – 207). Nature of the test: ITC; Nano ITC; β3 phosphopeptide titrated into the Shc protein (30-150 μM); 25°C; 50 mM Tris, pH 7.5, 100 mM NaCl, 5 mM β-mercaptoethanol; independent model. As to conditions: both partners purified. This is another data set of the same source.
Test [10] has as its target T4, full length Shc (1 – 473). The description is as above. The note with it: both partners purified. The source holds these as a separate data set.

“Also recorded” adds a separate entry of the source. Where a SMILES comes first, the peptide text is derived from it. Where no end group is shown, it is not given here. [ ]: non-standard residue; d: D form. pY = N[C@@H](Cc1ccc(OP(=O)(O)O)cc1)C(=O)O

In general, Kd refers to a measure of binding affinity in units of concentration. The term stoichiometry N denotes a count of units in the complex or per binding partner.

As for `CC[C@H](C)[C@H](NC(=O)[C@H](CC(N)=O)NC(=O)[C@@H](NC(=O)[C@H](Cc1ccccc1)NC(=O)[C@@H](NC(=O)[C@H](CO)NC(=O)[C@@H](NC(=O)[C@H](C)NC(=O)[C@H](CCC(=O)O)NC(=O)[C@H](CCCCN)NC(=O)[C@H](Cc1ccc(OP(=O)(O)O)cc1)NC(=O)[C@H](CC(C)C)NC(=O)[C@@H]1CCCN1C(=O)[C@H](CC(N)=O)NC(=O)[C@H](CC(N)=O)NC(=O)[C@H](C)NC(=O)[C@@H](NC(=O)[C@H](CC(=O)O)NC(=O)[C@H](Cc1c[nH]c2ccccc12)NC(=O)[C@H](CCCCN)NC(=O)[C@H](C)NC(=O)[C@@H](N)CCCNC(=N)N)[C@@H](C)O)[C@@H](C)O)[C@@H](C)O)[C@@H](C)O)C(=O)N[C@H](C(=O)N[C@@H](Cc1ccc(OP(=O)(O)O)cc1)C(=O)N[C@@H](CCCNC(=N)N)C(=O)NCC(=O)N[C@H](C(=O)O)[C@@H](C)O)[C@@H](C)O` [bi-β3] (H-RAKWDTANNPL[pY]KEATSTFTNIT[pY]RGT-OH), the “change in Kd caused by Ins(1,4,5)P3” value in test [1] is recorded as “slight reduction of Kd value”.

Regarding “Phosphatidylinositol-5-phosphate [PtdIns(5)P1]”, the Kd entry in [2] (50 mM Tris pH 7.5, 100 mM NaCl, 5 mM β-mercaptoethanol, "independent" model, dihexanoyl- or dioctonoyl- PtdIns) is “not able to detect the binding; also recorded: does not show to bind; also recorded: No binding”. Moreover, in [2] (pH 7.5), the ΔG result is on record as “No binding”, the ΔH entry is reported as “No binding” and the “−TΔS” value is recorded as “No binding”.

B1: c-β3: β3 integrin derived peptide phosphorylated at C-terminal tyrosine (Y759) (peptide)
peptide: ATSTFTNIT[pY]RGT
notes: integrin β3 cytoplasmic tail, residues 750-762, Y759 phosphorylated; also called mono-phosphorylated peptide; source: synthetic peptide (NEO-Peptide)
As to B1, the Kd came out at 1120 nM in test [3]; 870 nM in [4]; 340 nM in test [5]; 1050 nM in test [7]; 820 nM in test [8]; 350 nM in test [9]. For the same molecule, the Kd in test [10] was found to be 1330 nM. Besides, the dH in test [3] is -5.65 kcal/mol; in test [4], -5.05 kcal/mol; in test [7] it was -5.78 kcal/mol; in [8], -5.03 kcal/mol; in [9], -6.07 kcal/mol; in test [10], -1.77 kcal/mol. For the same molecule, the “stoichiometry N” value in [5] and in test [6] was 1 ± 0.15 in each case.

Values taken from PMC4397963, “Phospho-Tyrosine(s) vs. Phosphatidylinositol Binding in Shc Mediated Integrin Signaling” (American journal of molecular biology, 2015).
